Data on eight proteins can be found in paper PMC3112237 (Journal of virology, 2011).

First the molecules themselves.
B1: Ad3-E/S/Kn (His tag, E-coil dimerization domain, flexible linker, one shaft motif, Ad3 fiber knob) (designed binder)
chain: EVSALEKEVSALEKEVSALEKEVSALEKEVSALEKGSGGGSGGGSGGGSNSIALKNNTLWTGPKPEANCIIEYGKQNPDSKLTLILVKNGGIVNGYVTLMGASDYVNTLFKNKNVSINVELYFDATGHILPDSSSLKTDLELKYKQTADFSARGFMPSTTAYPFVLPNAGTHNENYIFGQCYYKASDGALFPLEVTVMLNKRLPDSRTSYVMTFLWSLNAGLAPETTQATLITSPFTFSYIREDD
B2: Ad3-K/S/Kn (His tag, K-coil dimerization domain, flexible linker, one shaft motif, Ad3 fiber knob) (designed binder)
chain: KVSALKEKVSALKEKVSALKEKVSALKEKVSALKEGSGGGSGGGSGGGSNSIALKNNTLWTGPKPEANCIIEYGKQNPDSKLTLILVKNGGIVNGYVTLMGASDYVNTLFKNKNVSINVELYFDATGHILPDSSSLKTDLELKYKQTADFSARGFMPSTTAYPFVLPNAGTHNENYIFGQCYYKASDGALFPLEVTVMLNKRLPDSRTSYVMTFLWSLNAGLAPETTQATLITSPFTFSYIREDD
modifications: biotinylated (sites not given) only where it was immobilised on streptavidin (Fig. 5A)
B3: recombinant Ad3 fiber knob S4/Kn (four shaft motifs and the knob domain) (domain or fragment)
chain: LEENIKVNTPLTKSNHSINLPIGNGLQIEQNKLCSKLGNGLTFDSSNSIALKNNTLWTGPKPEANCIIEYGKQNPDSKLTLILVKNGGIVNGYVTLMGASDYVNTLFKNKNVSINVELYFDATGHILPDSSSLKTDLELKYKQTADFSARGFMPSTTAYPFVLPNAGTHNENYIFGQCYYKASDGALFPLEVTVMLNKRLPDSRTSYVMTFLWSLNAGLAPETTQATLITSPFTFSYIREDD
B4: recombinant Ad3 fiber knob S2/Kn (two shaft motifs and the knob domain) (domain or fragment)
chain: NKLCSKLGNGLTFDSSNSIALKNNTLWTGPKPEANCIIEYGKQNPDSKLTLILVKNGGIVNGYVTLMGASDYVNTLFKNKNVSINVELYFDATGHILPDSSSLKTDLELKYKQTADFSARGFMPSTTAYPFVLPNAGTHNENYIFGQCYYKASDGALFPLEVTVMLNKRLPDSRTSYVMTFLWSLNAGLAPETTQATLITSPFTFSYIREDD
B5: recombinant Ad3 fiber knob S3/Kn (three shaft motifs and the knob domain) (domain or fragment)
chain: HSINLPIGNGLQIEQNKLCSKLGNGLTFDSSNSIALKNNTLWTGPKPEANCIIEYGKQNPDSKLTLILVKNGGIVNGYVTLMGASDYVNTLFKNKNVSINVELYFDATGHILPDSSSLKTDLELKYKQTADFSARGFMPSTTAYPFVLPNAGTHNENYIFGQCYYKASDGALFPLEVTVMLNKRLPDSRTSYVMTFLWSLNAGLAPETTQATLITSPFTFSYIREDD
B6: recombinant Ad3 fiber knob S/Kn (one shaft motif and the knob domain) (domain or fragment)
chain: NSIALKNNTLWTGPKPEANCIIEYGKQNPDSKLTLILVKNGGIVNGYVTLMGASDYVNTLFKNKNVSINVELYFDATGHILPDSSSLKTDLELKYKQTADFSARGFMPSTTAYPFVLPNAGTHNENYIFGQCYYKASDGALFPLEVTVMLNKRLPDSRTSYVMTFLWSLNAGLAPETTQATLITSPFTFSYIREDD
B7: recombinant Ad3 fiber knob S5/Kn (five shaft motifs and the knob domain) (domain or fragment)
chain: GSLQLKVGSGLTVDTTDGSLEENIKVNTPLTKSNHSINLPIGNGLQIEQNKLCSKLGNGLTFDSSNSIALKNNTLWTGPKPEANCIIEYGKQNPDSKLTLILVKNGGIVNGYVTLMGASDYVNTLFKNKNVSINVELYFDATGHILPDSSSLKTDLELKYKQTADFSARGFMPSTTAYPFVLPNAGTHNENYIFGQCYYKASDGALFPLEVTVMLNKRLPDSRTSYVMTFLWSLNAGLAPETTQATLITSPFTFSYIREDD
B8: recombinant Ad3 fiber knob S6/Kn (six shaft motifs and the knob domain) (domain or fragment)
chain: GVLSLKCVNPLTTASGSLQLKVGSGLTVDTTDGSLEENIKVNTPLTKSNHSINLPIGNGLQIEQNKLCSKLGNGLTFDSSNSIALKNNTLWTGPKPEANCIIEYGKQNPDSKLTLILVKNGGIVNGYVTLMGASDYVNTLFKNKNVSINVELYFDATGHILPDSSSLKTDLELKYKQTADFSARGFMPSTTAYPFVLPNAGTHNENYIFGQCYYKASDGALFPLEVTVMLNKRLPDSRTSYVMTFLWSLNAGLAPETTQATLITSPFTFSYIREDD

One data set deals with the molecule itself. Description: SDS-PAGE of unboiled samples, Coomassie stain.
For orientation: stoichiometry N means the number of molecules, sites or subunits per partner or assembly. Take B1: the “stoichiometry N” value came to 3.

For B2, the “stoichiometry N” value was 3.

The next data set concerns the molecule itself. Description: SDS-PAGE of unboiled samples with Western blot.
Turning to B3, the “stoichiometry N” value stood at 3. Take B4: the “stoichiometry N” value came out at 3.

With B5, the “stoichiometry N” value was 3.

B6: the “stoichiometry N” value turned out to be 3. Still for that read-out and setting: the same measure for B7: 3. B8: the “stoichiometry N” value turned out to be 3.
